Measured values reported in patent publication US20160311908A1 (MERRIMACK PHARMACEUTICALS, published 2016).

Target: murine EGFR (murine, UniProt Q01279 25-647, limits assumed)
Assay: not described (statement in the xenograft methods)

binding result: no binding
B1: P3X (antibody, V domains shown)
VH: QVQLVQSGAEVKKPGASVKVSCKASGYAFTSYGINWVRQAPGQGLEWMGWISAYNGNTYYAQKLRGRVTMTTDTSTSTAYMELRSLRSDDTAVYYCARDLGGYGSGSVPFDPWGQGTLVTVSS
VL: EIVMTQSPATLSVSPGERATLSCRASQSVSSNLAWYQQKPGQAPRLLIYGASTRATGIPARFSGSGSGTEFTLTISSLQSEDFAVYYCQDYRTWPRRVFGGGTKVEIK
notes: Fully human monoclonal antibody; Alexa Fluor 488-labelled in flow cytometry; also called P3X monoclonal antibody; third monoclonal antibody
